From doi:10.1101/2025.08.18.670960 come the findings set out here.

The target in the assay is UNC-119 tagged with the C-terminal fragment of Venus (C. elegans) (UniProt Q10658). Kind of assay: split reporter (BiFC, NanoBiT); BiFC in AWC neurons of wild-type animals: VC::UNC-119 with ODR-3::VN variants; read-out is percent of transgenic animals with signal; free VN as negative control.
Sequence of UniProt Q10658 (Q10658 whole entry, the tested form may be a part): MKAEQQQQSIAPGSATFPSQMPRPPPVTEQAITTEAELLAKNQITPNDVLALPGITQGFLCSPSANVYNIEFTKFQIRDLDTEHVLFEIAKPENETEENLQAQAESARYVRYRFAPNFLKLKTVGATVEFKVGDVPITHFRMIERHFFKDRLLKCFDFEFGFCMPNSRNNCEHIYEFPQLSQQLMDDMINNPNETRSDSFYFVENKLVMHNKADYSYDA

As to “ODR-3^WT tagged with the N-terminal Venus fragment (from UniProt Q18434 1-356) (natural protein)”, the percent of transgenic animals with BiFC signal came out at 81%.

In the case of “ODR-3^A328P tagged with the N-terminal Venus fragment (from UniProt Q18434 1-356) (natural protein)”, the percent of transgenic animals with BiFC signal is 51%.
